Values quoted from earlier work, collected in PMC5244385.

Target: Fibrinogen (Homo sapiens) (UniProt P02671)
Sequence of UniProt P02671 (P02671 36-866, chain 1 of 3): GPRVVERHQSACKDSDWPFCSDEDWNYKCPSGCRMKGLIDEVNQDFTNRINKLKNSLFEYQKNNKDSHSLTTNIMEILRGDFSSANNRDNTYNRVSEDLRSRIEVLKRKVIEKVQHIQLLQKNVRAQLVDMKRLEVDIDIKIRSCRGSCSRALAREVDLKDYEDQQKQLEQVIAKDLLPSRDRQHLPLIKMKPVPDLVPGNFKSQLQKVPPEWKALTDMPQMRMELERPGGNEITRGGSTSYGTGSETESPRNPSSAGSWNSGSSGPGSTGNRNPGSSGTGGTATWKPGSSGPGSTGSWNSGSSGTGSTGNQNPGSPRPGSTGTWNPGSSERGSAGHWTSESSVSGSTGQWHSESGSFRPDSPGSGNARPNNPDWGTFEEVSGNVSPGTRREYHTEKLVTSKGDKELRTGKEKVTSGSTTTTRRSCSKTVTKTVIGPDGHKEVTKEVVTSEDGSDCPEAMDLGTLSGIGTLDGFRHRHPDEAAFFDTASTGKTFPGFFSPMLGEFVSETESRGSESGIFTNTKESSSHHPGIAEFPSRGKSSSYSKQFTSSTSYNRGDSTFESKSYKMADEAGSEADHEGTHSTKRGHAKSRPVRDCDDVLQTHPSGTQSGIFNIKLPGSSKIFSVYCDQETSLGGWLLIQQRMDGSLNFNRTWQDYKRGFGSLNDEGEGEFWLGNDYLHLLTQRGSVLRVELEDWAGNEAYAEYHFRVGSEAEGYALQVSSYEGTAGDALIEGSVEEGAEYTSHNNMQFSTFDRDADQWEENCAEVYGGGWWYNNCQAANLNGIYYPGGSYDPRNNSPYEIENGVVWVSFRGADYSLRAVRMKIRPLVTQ
Sequence of UniProt P02671 (P02675 45-491, chain 2 of 3, further chain): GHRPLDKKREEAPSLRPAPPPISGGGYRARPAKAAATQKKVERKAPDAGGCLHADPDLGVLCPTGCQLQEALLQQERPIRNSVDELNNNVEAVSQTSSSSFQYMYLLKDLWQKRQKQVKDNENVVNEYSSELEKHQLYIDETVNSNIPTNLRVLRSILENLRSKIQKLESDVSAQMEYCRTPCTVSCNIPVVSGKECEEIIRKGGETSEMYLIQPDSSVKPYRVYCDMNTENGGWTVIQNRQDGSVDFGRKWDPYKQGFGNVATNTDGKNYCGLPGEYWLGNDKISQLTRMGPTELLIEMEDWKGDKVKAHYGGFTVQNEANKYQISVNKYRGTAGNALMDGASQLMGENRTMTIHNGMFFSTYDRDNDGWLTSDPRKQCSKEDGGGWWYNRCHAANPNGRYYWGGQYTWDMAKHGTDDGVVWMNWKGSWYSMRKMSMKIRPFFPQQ
Sequence of UniProt P02671 (P02679 27-453, chain 3 of 3, further chain): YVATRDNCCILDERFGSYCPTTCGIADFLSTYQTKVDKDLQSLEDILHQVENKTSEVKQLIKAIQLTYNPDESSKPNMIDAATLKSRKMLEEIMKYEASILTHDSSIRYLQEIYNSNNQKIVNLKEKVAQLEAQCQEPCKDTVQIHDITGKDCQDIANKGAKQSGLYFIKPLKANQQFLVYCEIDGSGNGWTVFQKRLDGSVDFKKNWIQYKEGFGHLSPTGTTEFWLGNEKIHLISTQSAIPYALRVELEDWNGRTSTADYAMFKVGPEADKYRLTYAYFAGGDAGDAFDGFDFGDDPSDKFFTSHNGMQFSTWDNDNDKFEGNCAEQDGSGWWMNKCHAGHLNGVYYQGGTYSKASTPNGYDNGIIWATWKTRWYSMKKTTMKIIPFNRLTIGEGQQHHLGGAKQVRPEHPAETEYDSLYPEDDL

Substance: Clumping factor A (from UniProt Q53653)
- Kd: 510 nM
